Assay results taken from PMC4555173, “Octanoylation of early intermediates of mycobacterial methylglucose lipopolysaccharides” (Scientific Reports, 2015).

Experiments:
[1] = target: M. tuberculosis OctT (Rv2418c) (Mycobacterium tuberculosis, UniProt P71725)
M. hassiacum OctT = M. hassiacum OctT (Mycolicibacterium hassiacum, UniProt K5BJH8); assay: CoA release with DTNB at […] nm; assay type: biochemical; conditions: DGG 20 mM, Oct-CoA 80 μM; product inhibition; enzyme species not given, M. hassiacum inferred from the characterisation
purified protein [2] = substrate: O=C(O)[C@@H](CO)O[C@H]1O[C@H](CO[C@H]2O[C@H](CO)[C@@H](O)[C@H](O)[C@H]2O)[C@@H](O)[C@H](O)[C@H]1O; assay: purified protein; assay type: biochemical, Mycolicibacterium smegmatis; conditions: apparent, Oct-CoA 100 μM, 50 mM BTP, 37 °C
purified protein [3] = substrate: O=C(O)[C@@H](CO)O[C@H]1O[C@H](CO)[C@@H](O)[C@H](O)[C@H]1O; assay: purified protein; assay type: biochemical, Mycolicibacterium smegmatis; conditions: apparent, Oct-CoA 100 μM, 50 mM BTP, 37 °C
purified protein [4] = substrate: CCCCCCCC(=O)SCCNC(=O)CCNC(=O)[C@H](O)C(C)(C)COP(=O)(O)OP(=O)(O)OC[C@H]1O[C@@H](n2cnc3c(N)ncnc32)[C@H](O)[C@@H]1OP(=O)(O)O; assay: purified protein; assay type: biochemical, Mycolicibacterium smegmatis; conditions: apparent, DGG 45 mM, 50 mM BTP, 37 °C, substrate inhibition above 100 μM
purified protein [5] = substrate: O=C(O)[C@@H](CO)O[C@H]1O[C@H](CO[C@H]2O[C@H](CO)[C@@H](O)[C@H](O)[C@H]2O)[C@@H](O)[C@H](O)[C@H]1O; assay: purified protein; assay type: biochemical, Mycolicibacterium hassiacum; conditions: apparent, Oct-CoA 100 μM, 50 mM BTP, 37 °C
purified protein [6] = substrate: CCCCCC(=O)SCCNC(=O)CCNC(=O)[C@H](O)C(C)(C)COP(=O)(O)OP(=O)(O)OC[C@H]1O[C@@H](n2cnc3c(N)ncnc32)[C@H](O)[C@@H]1OP(=O)(O)O; assay: purified protein; assay type: biochemical, Mycolicibacterium hassiacum; conditions: apparent, DGG 20 mM, 50 mM BTP, 37 °C, substrate inhibition above 100 μM
purified protein [7] = substrate: O=C(O)[C@@H](CO)O[C@H]1O[C@H](CO)[C@@H](O)[C@H](O)[C@H]1O; assay: purified protein; assay type: biochemical, Mycolicibacterium hassiacum; conditions: apparent, Oct-CoA 100 μM, 50 mM BTP, 37 °C
purified protein [8] = substrate: CCCCCCCC(=O)SCCNC(=O)CCNC(=O)[C@H](O)C(C)(C)COP(=O)(O)OP(=O)(O)OC[C@H]1O[C@@H](n2cnc3c(N)ncnc32)[C@H](O)[C@@H]1OP(=O)(O)O; assay: purified protein; assay type: biochemical, Mycolicibacterium hassiacum; conditions: apparent, DGG 20 mM, 50 mM BTP, 37 °C, substrate inhibition above 100 μM

Chain of M. tuberculosis OctT (Rv2418c) (P71725 whole entry): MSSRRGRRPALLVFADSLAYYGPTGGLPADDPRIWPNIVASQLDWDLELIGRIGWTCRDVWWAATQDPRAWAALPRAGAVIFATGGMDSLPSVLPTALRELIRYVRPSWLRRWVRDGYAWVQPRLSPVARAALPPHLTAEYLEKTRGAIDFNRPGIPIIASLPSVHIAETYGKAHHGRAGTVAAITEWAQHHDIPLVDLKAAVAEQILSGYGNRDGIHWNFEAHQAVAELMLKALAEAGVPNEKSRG

O=C(O)[C@@H](CO)O[C@H]1O[C@H](CO[C@H]2O[C@H](CO)[C@@H](O)[C@H](O)[C@H]2O)[C@@H](O)[C@H](O)[C@H]1O [DGG, (2R)-2-O-α-D-glucopyranosyl-(1→6)-α-D-glucopyranosyl-2,3-dihydroxypropanoate]
preparative conversion, TLC and NMR of product [1]: natural Oct-DGG produced by the M. tuberculosis, M. hassiacum and M. smegmatis recombinant OctT enzymes

CCCCCCCC(=O)OC[C@H]1O[C@H](OC[C@H]2O[C@H](O[C@H](CO)C(=O)O)[C@H](O)[C@@H](O)[C@@H]2O)[C@H](O)[C@@H](O)[C@@H]1O [compound 1]
% loss of activity at 400 μM (M. hassiacum OctT): 22%

B1: M. smegmatis OctT (Mycolicibacterium smegmatis MC2 155) (protein)
chain: MSSETSSESTGHRPVLLVFADSLSYFGPTGGLPADDPRIWPNIVGEQLGWDVELIGRIGWTCRDVWWAATQDPRSWAALPRAGAVVFATSGMDSLPSPLPTALREMIRYVRPPWLRRWVRDGYGWVQPRLSPIARSALPPHVTVEYLEMTRNAIDFNRPGIPVVASLPSVHIAETYGRAHHGREPTVRAITAWAEEHHVPLVDLKAAVADEVFGGRGNPDGIHWSFEAHRAVAELMLKGLAEAGVTQRDSAT
Km (purified protein [2]): 20.0 ± 3.6 mM
kcat/Km (purified protein [2]): 1.83 ± 0.833 M⁻¹ s⁻¹
Km (purified protein [3]): 19.0 ± 8.6 mM
Km (purified protein [4]): 0.03 ± 0.01 mM
kcat/Km (purified protein [4]): 1430 ± 483 M⁻¹ s⁻¹

B2: M. hassiacum OctT (Mycolicibacterium hassiacum DSM 44199) (protein)
chain: MSGRRPTLLVFCDSLSYYGPRGGLPADDPRIWPNIVASQLDWDVELIGRVGWTSRDVWWAATQDPRAWAALPRAGAVIFATGGMDSLPSPLPTALRELIRYIRPPWLRRRVRDLYGWLQPRLSPVSRNALPPHLTAEYLEMTRGAIDFNRPGIPVVAALPSVHIADSYGRAHHGREATARAITEWARQHGVVLVDLKAAVADQVLNGRGNPDGIHWNFEAHQAVAELMLKALAEAGVPCR
Km (purified protein [5]): 9.5 ± 0.8 mM
kcat/Km (purified protein [5]): 0.167 M⁻¹ s⁻¹
kcat/Km (purified protein [6]): 35 ± 10 M⁻¹ s⁻¹
Km (purified protein [7]): 6.6 ± 0.78 mM
kcat/Km (purified protein [7]): 0.05 ± 0.00667 M⁻¹ s⁻¹
Km (purified protein [8]): 0.06 ± 0.01 mM
kcat/Km (purified protein [8]): 31.7 ± 6.67 M⁻¹ s⁻¹
